{"source": "paper PMC9485057", "key": {"[1]": {"target": "FbxwD-FLAG (endogenous locus tagged) (D. discoideum)", "assay": "co-IP; FbxwD-FLAG precipitated with anti-FLAG M2 magnetic beads from S21 lysates of phyA+ or phyA– vegetative or slug cells, 4 °C 1 h; Skp1 detected by Western blot (pAb UOK77), densitometry"}, "[2]": {"target": "JcdI-FLAG (endogenous locus tagged) (D. discoideum) (UniProt Q55CL5)", "sequence (Q55CL5 entry or part of it)": "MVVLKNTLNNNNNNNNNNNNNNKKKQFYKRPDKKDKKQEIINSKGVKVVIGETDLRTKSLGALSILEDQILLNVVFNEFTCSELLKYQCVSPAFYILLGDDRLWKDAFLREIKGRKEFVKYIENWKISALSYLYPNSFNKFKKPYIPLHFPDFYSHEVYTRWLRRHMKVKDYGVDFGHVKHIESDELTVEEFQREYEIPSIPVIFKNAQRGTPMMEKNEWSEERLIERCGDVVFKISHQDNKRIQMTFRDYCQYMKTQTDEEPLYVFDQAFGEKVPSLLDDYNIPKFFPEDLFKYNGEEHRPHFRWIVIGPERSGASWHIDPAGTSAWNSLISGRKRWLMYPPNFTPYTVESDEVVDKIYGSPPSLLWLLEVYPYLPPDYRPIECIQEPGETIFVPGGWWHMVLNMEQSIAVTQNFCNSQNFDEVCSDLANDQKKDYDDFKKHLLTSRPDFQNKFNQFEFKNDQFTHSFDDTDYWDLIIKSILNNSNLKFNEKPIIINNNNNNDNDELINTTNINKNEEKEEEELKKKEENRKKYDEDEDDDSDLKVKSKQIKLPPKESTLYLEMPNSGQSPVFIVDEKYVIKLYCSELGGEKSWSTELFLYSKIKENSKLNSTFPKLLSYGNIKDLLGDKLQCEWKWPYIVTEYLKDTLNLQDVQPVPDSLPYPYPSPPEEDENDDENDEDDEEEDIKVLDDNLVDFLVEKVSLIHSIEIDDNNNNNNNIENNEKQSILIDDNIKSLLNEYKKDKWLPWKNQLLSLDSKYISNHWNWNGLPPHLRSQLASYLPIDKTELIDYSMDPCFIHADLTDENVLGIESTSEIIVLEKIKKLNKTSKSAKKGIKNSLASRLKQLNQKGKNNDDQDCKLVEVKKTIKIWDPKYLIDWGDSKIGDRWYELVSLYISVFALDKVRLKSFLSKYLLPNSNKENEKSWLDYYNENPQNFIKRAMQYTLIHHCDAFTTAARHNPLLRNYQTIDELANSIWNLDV", "assay": "co-IP; FLAG-JcdI or JcdI-FLAG precipitated with anti-FLAG M2 beads from NP-40 lysates of vegetative or slug cells, 4 °C 1 h, washed in 50 mM Tris-HCl pH 8.0, 150 mM NaCl, 0.2% NP-40; Skp1 detected by Western blot"}}}
{"substance": "Skp1 (endogenous, from phyA+ / gnt1+ cells; hydroxylated and glycosylated) (from UniProt P52285 1-162) (natural protein)", "values": [{"measurement": "fold more Skp1 co-IPed with FbxwD-FLAG, phyA+ versus phyA– slug cells", "setting": "[1]", "result": 4, "unit": "fold"}, {"measurement": "fold more Skp1 co-IPed with FbxwD-FLAG, phyA+ versus phyA– vegetative cells", "setting": "[1]", "result": 2.5, "unit": "fold"}, {"measurement": "fold more Skp1 (Skp1:JcdI ratio) co-IPed with JcdI-FLAG, gnt1+ versus gnt1– vegetative cells", "setting": "[2]", "result": 2, "unit": "fold"}, {"measurement": "fold preferential interaction with JcdI-FLAG, gnt1+ versus gnt1– slug cells", "setting": "[2]", "result": 2, "unit": "fold"}]}
